Source: patent US20180280520A1 (NAVIGEN, published 2018)
Where “and” joins values, the source holds several entries; their conditions need not be identical. Equal entries are not always repeated. Positions of bridges follow the written chain, without caps; N, C: chain ends. Non-standard residues stand in square brackets, D forms with d. Primed or numbered codes have the meaning given here. No end group written: not given here. PEG4′ = not defined here; PEG6′ = not defined here; PEG8′ = not defined here

T1: BPEG2-GKG-RSVB-IZN45 Full Mut (respiratory syncytial virus, RSV-B, N-terminal biotinPEG2; C-terminal amide)
T1 construct: also called IZN45_Mut; mutant target
T1 chain: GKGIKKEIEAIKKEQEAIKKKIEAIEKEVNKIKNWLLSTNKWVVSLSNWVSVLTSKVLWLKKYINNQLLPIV

T2: IZN45_WT_Bot (N-terminal biotinPEG2; C-terminal amide)
T2 construct: also called BPEG2-GKG-RSVB-IZN45 wt bot
T2 N-trimer mimic monomer (IZ fused to N45, partial groove mutant): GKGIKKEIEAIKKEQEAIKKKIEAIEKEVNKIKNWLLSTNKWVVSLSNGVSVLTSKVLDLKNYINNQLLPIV

T3: BPEG2-GKG-RSVB-IZN45 (respiratory syncytial virus, RSV-B, N-terminal biotinPEG2; C-terminal amide)
T3 chain: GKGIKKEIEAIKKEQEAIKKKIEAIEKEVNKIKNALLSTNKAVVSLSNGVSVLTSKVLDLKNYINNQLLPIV

B1: T108 (peptide)
peptide: YDPLVFPSDEFDASISQVNEKINQSLAFIRKSDEL
notes: domain: 35-residue RSV C-peptide T108; also called RSV C-peptide T108
B2: Ac-K(PEG6)-RSVP21-trimer (peptide)
peptide: Ac-KG[dA][dC][dT][dN][dR][dA][dE][dW][dL][dI][dD][dW][dC][dA][dA]-NH2
modifications: disulfide 4-15 (inferred); not fully specified (residue 1); printed as Ac-K(PEG6)-RSVP21-trimer; also: PEG6 after N-terminal K (side chain or backbone unclear), trimer
B3: Ac-K(PEG6)-RSVP20-trimer (peptide)
peptide: Ac-KG[dA][dC][dR][dN][dE][dP][dH][dW][dL][dL][dD][dW][dC][dA][dA]-NH2
modifications: disulfide 4-15 (inferred); not fully specified (residue 1); printed as Ac-K(PEG6)-RSVP20-trimer; also: PEG6 after N-terminal K (side chain or backbone unclear), trimer
B4: Ac-KG-RSVP20 (peptide)
peptide: Ac-[dK]GG[dA][dC][dR][dN][dE][dP][dH][dW][dL][dL][dD][dW][dC][dA][dA]-NH2
modifications: disulfide 5-16
SMILES: CC(=O)N[C@H](CCCCN)C(=O)NCC(=O)NCC(=O)N[C@H](C)C(=O)N[C@@H]1CSSC[C@H](C(=O)N[C@H](C)C(=O)N[C@H](C)C(N)=O)NC(=O)[C@@H](Cc2c[nH]c3ccccc23)NC(=O)[C@@H](CC(=O)O)NC(=O)[C@@H](CC(C)C)NC(=O)[C@@H](CC(C)C)NC(=O)[C@@H](Cc2c[nH]c3ccccc23)NC(=O)[C@@H](Cc2c[nH]cn2)NC(=O)[C@H]2CCCN2C(=O)[C@@H](CCC(=O)O)NC(=O)[C@@H](CC(N)=O)NC(=O)[C@@H](CCCNC(=N)N)NC1=O
B5: Chol-Ac-K(PEG4)DDG-RSVP32-trimer (peptide)
peptide: Ac-[dK][PEG4′][dD][dD]GG[dE][dC][dV][dN][dR][dP][dE][dW][dL][dL][dD][dW][dC]G[dT]-NH2
modifications: disulfide 8-19; also: Chol, attachment not given here, trimer, linkage not given here

Biological target: T1, BPEG2-GKG-RSVB-IZN45 Full Mut
Assay: phage ELISA of clonal phage, percent bound
SKVILPEPFWWP [X12-47 phage clone]: no binding.
GACKIHDLFHWHDCAA (disulfide (positions not given here); not fully specified (bridges), also called CXC10C-119) [CX10C-119 phage clone]: no binding.
SLKYWWMEELPLPKWW [X16-18 phage clone]: no binding.

Biological target: T2, IZN45_WT_Bot
Assay: phage ELISA of clonal phage, percent bound
SLKYWWMEELPLPKWW [X16-18 phage clone]: no binding.

Biological target: T1, BPEG2-GKG-RSVB-IZN45 Full Mut
Assay: SPR
FDASISQVNEKINQSLAFIRKSDELLHNVNAGKST (also called RSV C-peptide T118) [T118]: no binding.
B1: no binding.

Each binder was assayed against RSV F protein (RSV-A) (respiratory syncytial virus, RSV-A, UniProt P03420 26-574) (assay: cell-based or functional assay).
With KKGRWFELPEPEWWG (not fully specified; all D-amino acids; C-terminal PEG6 joined to the hub) [KKG-RSVP7-G(PEG6)-Tricasso] the “IC50, syncytia reduction assay” value was 4800 nM and 4500 nM.
With B2 the “IC50, syncytia reduction assay” value was 65000 nM.
For [dK]G[dR][dW][dF][dE][dL][dP][dE][dP][dE][dW][dW]G (not fully specified (C-terminus); printed as KG-RSVP7-G(PEG6)-Tricasso) [KG-RSVP7-G(PEG6)-Tricasso], the “IC50, syncytia reduction assay” value was 18400 nM.
With B3 the “IC50, syncytia reduction assay” value was 55000 nM and 19000 nM.

Biological target: T1, BPEG2-GKG-RSVB-IZN45 Full Mut
Assay: phage ELISA
YDPLVFPSDEFDASISQVNEKINQSLAFIRKSDEL (domain: 35-residue RSV C-peptide T108) [control phage displaying T108]: no binding.

Biological target: T3, BPEG2-GKG-RSVB-IZN45
Assay: SPR, biotinylated L-IZN45 on NeutrAvidin chip
FDASISQVNEKINQSLAFIRKSDELLHNVNAGKST (also called RSV C-peptide T118) [T118] was tested, and the Kd was about 1 nM.

What follows are binders tested against RSV F protein (RSV-A) (respiratory syncytial virus, RSV-A) (UniProt P03420) (assay: cell-based or functional assay).
RSV F protein (RSV-A) (respiratory syncytial virus, RSV-A), sequence (P03420 26-574): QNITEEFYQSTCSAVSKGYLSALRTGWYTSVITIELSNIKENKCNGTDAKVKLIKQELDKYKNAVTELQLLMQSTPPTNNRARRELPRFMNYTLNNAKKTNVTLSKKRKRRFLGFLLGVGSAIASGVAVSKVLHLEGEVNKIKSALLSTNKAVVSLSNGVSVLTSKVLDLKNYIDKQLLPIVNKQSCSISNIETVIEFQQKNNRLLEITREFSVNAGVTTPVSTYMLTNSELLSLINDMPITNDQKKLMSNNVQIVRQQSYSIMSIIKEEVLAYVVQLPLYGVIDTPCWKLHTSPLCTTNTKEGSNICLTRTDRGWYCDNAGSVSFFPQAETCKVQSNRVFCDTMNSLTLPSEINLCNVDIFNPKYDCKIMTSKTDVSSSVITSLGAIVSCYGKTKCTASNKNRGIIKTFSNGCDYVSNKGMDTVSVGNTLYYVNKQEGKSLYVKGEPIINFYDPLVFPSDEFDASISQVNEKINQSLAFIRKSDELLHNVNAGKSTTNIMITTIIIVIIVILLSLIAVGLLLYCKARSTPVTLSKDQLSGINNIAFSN
In the case of KKGAAAARWFELPEPEWWG (not fully specified; all D-amino acids; C-terminal PEG6 joined to the hub) [KKGAAAA-RSVP7-G(PEG6)-Tricasso], the IC50, syncytia reduction assay is reported as 13900 nM and 7400 nM.
B4 showed an IC50, syncytia reduction assay of 673000 nM.
Binder GEVCRPEWLLDWCGT (D-peptide; N-terminal acetyl; C-terminal amide) [RSVP32 with shortened disulfide] has a potency of 360 nM and a potency, fold decrease compared to RSVP32 of 14.4 fold.
With Ac-[dK][PEG6′][dD][dD]G[dA][dE][dC][dV][dN][dR][dP][dE][dW][dL][dL][dD][dW][dC]G[dT]-NH2 (disulfide 8-19; also: cholesterol conjugate, trimer) [Chol-Ac-K(PEG6)DDG-RSVP31-trimer] the IC50, syncytia reduction assay was 65 nM and 54 nM and 24 nM.
Ac-[dK][PEG6′][dD][dD]G[dS][dM][dC][dV][dN][dR][dP][dE][dW][dL][dL][dD][dW][dC]G[dT]-NH2 (disulfide 8-19; also: trimer, linkage not given here) [Ac-K(PEG6)DDG-RSVP24-trimer] showed an IC50, syncytia reduction assay of 5500 nM.
Ac-[dK][PEG6′][dD][dD]G[dH][dA][dC][dV][dN][dR][dP][dE][dW][dL][dL][dD][dW][dC][dD][dH]-NH2 (disulfide 8-19; also: cholesterol conjugate, trimer) [Chol-Ac-K(PEG6)DDG-RSVP28-trimer] showed an IC50, syncytia reduction assay of 240 nM.
With Ac-[dK][PEG6′][dD][dD]G[dS][dA][dC][dV][dN][dR][dP][dE][dW][dL][dL][dD][dW][dC]G[dT]-NH2 (disulfide 8-19; also: cholesterol conjugate, trimer) [Chol-Ac-K(PEG6)DDG-RSVP29-trimer] the IC50, syncytia reduction assay was 120 nM and 100 nM.
In the case of Ac-[dK][PEG6′][dD][dD]G[dH][dE][dC][dV][dN][dR][dP][dE][dW][dL][dL][dD][dW][dC][dE][dH]-NH2 (disulfide 8-19; also: cholesterol conjugate, trimer) [Chol-Ac-K(PEG6)DDG-RSVP27-trimer], the IC50, syncytia reduction assay is reported as 140 nM and 90 nM and 88 nM.
In the case of Ac-[dS][dM][dC][dV][dN][dR][dP][dE][dW][dL][dL][dD][dW][dC]G[dT]G[dD][dD][PEG6′][dK]-NH2 (disulfide 3-14; also: cholesterol conjugate, trimer) [Chol-Ac-RSVP24-GDD(PEG6)K-trimer], the IC50, syncytia reduction assay is reported as 97 nM.
For GECVNQPEWLLDWCGT (D-peptide; N-terminal acetyl; C-terminal amide) [RSVP32 with Gln at position 6], the potency was 53 nM and the potency, fold decrease compared to RSVP32 was 2 fold.
For Ac-G[dE][dC][dV][dN][dR][dP][dE][dW][dL][dL][dD][dW][dC]G[dT]G[dD][dD][PEG4′][dK]-NH2 (disulfide 3-14; also: cholesterol conjugate, trimer) [Chol-Ac-RSVP32-GDD(PEG4)K-trimer], the IC50, syncytia reduction assay was 37 nM and 52 nM and 95 nM.
In the case of Ac-[dK][PEG6′]G[dH][dA][dC][dV][dN][dR][dP][dE][dW][dL][dL][dD][dW][dC]G[dR]G[dR][dR]-NH2 (disulfide 6-17; also: trimer, linkage not given here) [Ac-K(PEG6)G-RSVP26-GRR-trimer], the IC50, syncytia reduction assay is reported as 5500 nM.
With Ac-[dK][PEG6′]G[dH][dA][dC][dV][dN][dR][dP][dE][dW][dL][dL][dD][dW][dC]G[dR]G[dR][dR]-NH2 (disulfide 6-17; also: cholesterol conjugate, trimer) [Chol-Ac-K(PEG6)G-RSVP26-GRR-trimer] the IC50, syncytia reduction assay was 490 nM.
In the case of Ac-[dK][PEG8′]GG[dE][dC][dV][dN][dR][dP][dE][dW][dL][dL][dD][dW][dC]G[dT]G[dD][dD]-NH2 (disulfide 6-17; also: cholesterol conjugate, trimer) [Chol-Ac-K(PEG8)G-RSVP32-GDD-trimer], the IC50, syncytia reduction assay is reported as 24 nM and 8 nM.
For Ac-[dK][PEG6′][dD][dD]G[dH][dA][dC][dV][dN][dR][dP][dE][dW][dL][dL][dD][dW][dC]G[dR]-NH2 (disulfide 8-19; also: cholesterol (Chol) conjugate, site not given here, trimer) [Chol-Ac-K(PEG6)DDG-RSVP26-trimer], the IC50, syncytia reduction assay was 3200 nM.
Work on Ac-[dS][dM][dC][dV][dN][dR][dP][dE][dW][dL][dL][dD][dW][dC]G[dT]G[dD][dD][PEG6′][dK]-NH2 (disulfide 3-14; also: trimer, linkage not given here) [Ac-RSVP24-GDD(PEG6)K-trimer] yielded an IC50, syncytia reduction assay of 4600 nM.
With B5 the IC50, syncytia reduction assay was 28 nM and 16 nM and 11 nM.
Ac-[dK][PEG6′]G[dA][dC][dR][dN][dE][dP][dH][dW][dL][dL][dD][dW][dC][dA][dA]-NH2 (disulfide 5-16; also: cholesterol (Chol) conjugate, site not given here, trimer) [Chol-Ac-K(PEG6)-RSVP20-trimer] gave an IC50, syncytia reduction assay of 7900 nM.
